Ends that are not written are not given here. * marks the point of attachment. Biotin = O=C1N[C@H]2[C@H](CS[C@H]2CCCCC(=O)*)N1
Target: GST–BRCA1–BRCT (UniProt P38398 1582-1863)
Experiment: pull-down

GST–BRCA1–BRCT, sequence (P38398 1582-1863): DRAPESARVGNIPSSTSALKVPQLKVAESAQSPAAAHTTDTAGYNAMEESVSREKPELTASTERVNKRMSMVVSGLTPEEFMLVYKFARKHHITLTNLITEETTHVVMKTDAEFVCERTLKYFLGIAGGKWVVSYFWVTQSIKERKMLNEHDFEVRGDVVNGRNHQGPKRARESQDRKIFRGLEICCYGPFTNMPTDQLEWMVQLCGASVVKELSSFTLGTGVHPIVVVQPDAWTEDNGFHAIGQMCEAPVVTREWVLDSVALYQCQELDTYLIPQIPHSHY

Biotin-KHDAIMDGASPDYVLV [biotinylated CSB peptide without S1276 phosphorylation]
binding result: binds

Reference: PMC6847465 (Nucleic Acids Research, 2019)
